According to the nanobody polyreactivity screen of Harvey et al. (2022):

test: yeast display, Sf9 membrane polyspecificity reagent, FACS + sequencing; frameworks hold sequencing errors
Method in brief: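 A synthetic nanobody library was expressed on Saccharomyces cerevisiae BJ5465 by galactose induction for 36–48 hours. The library was stained for 1 hour at 4 °C with 10% biotinylated, detergent-solubilized Sf9 membrane reagent and enriched with streptavidin microbeads before FACS. Low and high (top ~1%) gates were set on anti-HA fluorescence for expression and streptavidin fluorescence for reagent binding, and each polyreactivity label reflects the gate of origin.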

Sequence	polyreactivity (PSR sort gate)
QFQLVESGGGLVQAGGSLRLSCAASGRTFTYNAMGWYRQAPGKERELVAAINSGGSTNYADSVKGRFTISRDNAKNTVYLQMNSLKPEDTAVYYCNAGFGFGSSRYGTRYYYWGQGTQVTVSS	low polyreactivity
QFQLVESGGGLVQAGGSLRLSCAASGRTFVYYVMGWYRPAPGKERELVAAISRRGGSTYYADSVKGRFTISRDNAKNTVYLQMNSLKPEDTAVYYCAAQYYYAREDYWGQGTQVTVSS	high polyreactivity
QFQLVESGGGLVQAGGSLRLSCAASGSIFDSYYMGWYRQAPGKEREMVAAITSGGSTNYADSVKGRFTISRDNAKNTVYLQMNSLKPEDTAVYYCAAYYWYPVYYGYEYWGQGTQVTVSS	low polyreactivity
QFQLVESGGGLVQAGGSLRLSCAASGSIFHPYTMGWYRPAPGKERELVAAISWSGGNTNYADSVKGRFTISRDNAKNTVYLQMNSLKPEDTAVYYCNKATNLSGGYDSWGQGTQVTVSS	low polyreactivity
QFQLVESGGGLVQAGGSLRLSCAASGSIFKYYTMGRYRQAHGKEMELVAYISSGGSTKYADSVKGRFTISRDNAKNTVYLQMNSLKPEDTAVYYCAKRYYYFYPDYDYWGQGTQVTVSS	high polyreactivity
QFQLVESGGGLVQAGGSLRLSCAASGSIFPGYAMGWYRQAPGKERELVAAITVSGVSTYYADSVKGRFTISRDNEKNTVYLQMNSLKPEDTAVYYCARDNWQLYPSTWYDYWGQGTQVNVSS	high polyreactivity
QFQLVESGGGLVQAGGSLRLSCAASGSIFYGYAMGWYRQAPGKERELVARITGSGGDTSYADSVKGRFTISRDNAKNTVYLQMNSLKPEDTAVYYCNTDLYITYTLYTGSEYDYWGQGTQVTVSS	low polyreactivity
QFQLVESGGGLVQAGGSLRLSCAASGSIFYTYTMGWYRQAPGKDRVLVAAISFSDGDTYYADSVKGRFTISRDNAKNTVYLQMNSLKPEDTAVYYSNAYVYLPNYPYDYWGQGTQVTVSS	low polyreactivity
QFQLVESGGGLVQAGGSLRLSCAASGSIITPYAMGWYRPAPGKERELVAAISGRGGSTYYADSVKGRFTISRDNAKNTVYLQMNSLKPEDTAVYYCAARQYFRWYGWSMDYWGQGTQVTVSS	high polyreactivity
QFQLVESGGGLVQAGGSLRLSCAASGSTFDTYAMGWYRQAPGKERDLFAAISGSGVRTYYADSVKGRFTISRDNAKNTVYLQMNSLKPEDTAVYYSAAAGSGYGGKQFDHGFNYWGQGTQVTVSS	high polyreactivity
QFQLVESGGGLVQAGGSLRLSCAASGSTFPRYAMGWYRPAPGKERELVAAISRSGTSTYYADSVKGRFTISRDNAKNTVYLQMNSLKPEDTAVYYCAAEYHPRVLYPNWYDYWGQGTQVTVSS	low polyreactivity
QFQLVESGGGLVQAGGSLRLSCAASGSTFRHNAMGWYRQASGKEREWVATIRTSGGTTYYADSVKGRFTISRDNAKNTVYLQMNSLKPEDTAFYYCAKDALFIDGGGGYDYWGQGTQVTVSS	low polyreactivity
QFQLVESGGGLVQAGGSLRLSCAASGSTLELNAMGWYIQAPGKERELVAAITSSGGRTYYADSVKGRFTISRDNAKNTVYLQMNSLKPEDTAVYYCAAEPGQHRVVDRYDYWGQGTQVTVSS	low polyreactivity
QFQLVESGGGLVQAGGSLRLSCAASGVIFEWYTMGWYRQAPGKERELVARISSDGSTTYADSVKGRFTLSRDNAKNTVYFEMNSLKREDTAVYYCAADVSYPGLKYIFDYWGQGTLVTVSS	low polyreactivity
QFQLVESGGGLVQAGGSLRLSCAASGYIFLRNAMGCYRQAHGKERELVAAIRLTGGSTYYADSVKGRFTISRDNAKNTVYLQMNSLKPEDTAVYYCAKRSYTGYEYWGQGTQVTVSS	low polyreactivity
QFQLVESGGGLVQAGGSLRLSCAASVSTVVIYDMGWYRQAPGKERELVAAISYSGGSTYYADSVKGRFTITRDNAKNTVYLQMNSLKPEDTAVYYCNAGVLVLLYAYLPSDLEYWGQGTQVTVSS	low polyreactivity
QFQLVESGGGLVQAGGSLRLSCAPSGSTFVSYSMAWYRQEPGKERQFVAAITWSGGSTYYADSVKGRFTISRDNANNTVYLQMNSLKPEDTAVYYCARPYRGSPRYYYWGQGTQVTLSS	high polyreactivity
QFQLVESGGGLVQAGGSLRLSCDASGSIFSYYAMGWYRQAPGKERELVAAISQSGGTTYYADSLKGRFTISRDNEKNTVYLQMNSLKPEDTAVYYCAARAQSSFDTQYYYWGQGTQVTVSS	low polyreactivity
QFQLVESGGGLVQAGGSLRLSCSASGSIFVSNAMGRSRQAPGKERELVAAISSSGDSTYYADSVKGRFTISRDNAKNTFYVQMNSLKPEDNAVYYCAAVGPWWFPEYDYWGQGTQVTVSS	low polyreactivity
QFQLVESGGGLVQAGVSLRLSCAASGRIFSLYAMGWYRQAPGKERELVAAISYSGGSTYADSVKGRFTFSRDNAKNTVFLQMNSLKPEDTAVYYCAAEEYLAYAQFDYWGQGTQVTVSS	low polyreactivity
QFQLVESGGGLVQAGVSLRLSCAASGSIIKYYAMGWYRQAPGKERELVATINWNGGSTYYADSVKGRFTISRDNAKNTVYLQMNSLKPEDTAVYYCAAGYRGSYYHSHYEYLGQGTQVTVSS	high polyreactivity
